Laboratory results: PMC4417512, “Role of N-linked glycosylation in the secretion and enzymatic properties of Rhizopus chinensis lipase expressed in Pichia pastoris” (Microbial Cell Factories, 2015)
Read-outs that look alike come from different tables or passages of the source.

Columns and labels:
[1] = tested on: CCCCCCCCCCCCCCCC(=O)Oc1ccc([N+](=O)[O-])cc1; assay: purified protein; format: biochemical, Rhizopus microsporus; conditions: pH 8.0, 40°C, emulsified substrate, Triton X-100 and gum arabic in the standard assay
[2] = tested on: CCCCCCCCCCCCCCCC(=O)Oc1ccc([N+](=O)[O-])cc1; assay: purified protein; conditions: pH 8.0, 40°C, emulsified substrate, Triton X-100 and gum arabic in the standard assay

In the case of “Rhizopus chinensis lipase (RCL; proRCLCNQ): N48Q (proRCLCN48Q)”, the enzymatic_activity (N-glycosylation at N48) is reported as “no change, kcat 60.70 vs 61.33 s-1; Km 0.20 vs 0.19 mM; kcat/Km 2.92*10^5 vs 3.11*10^5 M-1 s-1”, the expression_or_secretion (N-glycosylation at N48) is reported as “no change” and the stability_or_folding (N-glycosylation at N48) is reported as “no change, about 70% residual activity after 1 h at 50 °C for both”.
For “proRCLCNQ (Rhizopus microsporus var. chinensis; K92N/R93Q)”, the Km [1] was 200 ± 40 µM, the kcat [1] was 60.7 ± 2.2 s⁻¹ and the kcat/Km [1] was 292000 ± 55000 M⁻¹ s⁻¹.
Substance “proRCLCNQ (Rhizopus microsporus var. chinensis; K92N/N40Q/R93Q)” has a Km ([1]; printed Km inconsistent with printed kcat/Km (tenfold), possible misprint) of 2010 ± 120 µM.
For “Rhizopus chinensis lipase (RCL; proRCLCNQ): N60Q (proRCLCN60Q)”, the expression_or_secretion (N-glycosylation at N60) was “abolishes”.
“r27RCLC (Rhizopus microsporus var. chinensis)” gave a Km [2] of 340 ± 100 µM, a kcat [2] of 122 ± 3.1 s⁻¹ and a kcat/Km [2] of 356000 ± 81000 M⁻¹ s⁻¹.
With “Rhizopus chinensis lipase (RCL; proRCLCNQ): N14Q (proRCLCN14Q)” the enzymatic_activity (N-glycosylation at N14) was “decreases, kcat 60.70 to 24.82 s-1; Km 0.20 to 2.01 mM; kcat/Km 2.92*10^5 to 1.22*10^5 M-1 s-1”, the expression_or_secretion (N-glycosylation at N14) was “no change” and the stability_or_folding (N-glycosylation at N14) was “decreases”. The structure_or_conformation (N-glycosylation at N14) was “no change”.
For “Rhizopus chinensis lipase (RCL; proRCLCNQ): N14Q (proRCLCN14Q), 90% (v/v) organic solvents, 24 h”, the stability_or_folding (N-glycosylation at N14) was “decreases, relative activity e.g. isooctane 78 ± 3.5% to 70 ± 3.0%; DMSO 58 ± 4.0% to 51 ± 4.2%”.
“proRCLCNQ (Rhizopus microsporus var. chinensis; K92N/N74Q/R93Q)” gave a Km [1] of 190 ± 20 µM, a kcat [1] of 61.3 ± 2.5 s⁻¹ and a kcat/Km [1] of 311000 ± 61000 M⁻¹ s⁻¹.
In the case of “Rhizopus chinensis lipase (RCL; proRCLCNQ): N60Q (proRCLCN60Q), mRNA level by RT-PCR”, the other (N-glycosylation at N60) is reported as “no change”.
